Measurements: paper PMC2918618, “Characterization of the TnsD-attTn7 complex that promotes site-specific insertion of Tn7” (Mobile DNA, 2010)
Positions count from the first letter of the chain named.

Tests used:
Assay in all cases: EMSA; Gel-shift buffer not given (as described in ref. 6); TnsD stored in 500 mM KCl, 50 mM Tris-HCl pH 8.0, 1 mM EDTA, 2 mM DTT, 25% glycerol
TnsD A486H = biological target: T1, TnsD A486H (Escherichia coli (transposon Tn7), UniProt P13991 1-508, A486H); conditions: protein: recombinant; tags: intein-chitin tag, cleaved with DTT
T1 sequence: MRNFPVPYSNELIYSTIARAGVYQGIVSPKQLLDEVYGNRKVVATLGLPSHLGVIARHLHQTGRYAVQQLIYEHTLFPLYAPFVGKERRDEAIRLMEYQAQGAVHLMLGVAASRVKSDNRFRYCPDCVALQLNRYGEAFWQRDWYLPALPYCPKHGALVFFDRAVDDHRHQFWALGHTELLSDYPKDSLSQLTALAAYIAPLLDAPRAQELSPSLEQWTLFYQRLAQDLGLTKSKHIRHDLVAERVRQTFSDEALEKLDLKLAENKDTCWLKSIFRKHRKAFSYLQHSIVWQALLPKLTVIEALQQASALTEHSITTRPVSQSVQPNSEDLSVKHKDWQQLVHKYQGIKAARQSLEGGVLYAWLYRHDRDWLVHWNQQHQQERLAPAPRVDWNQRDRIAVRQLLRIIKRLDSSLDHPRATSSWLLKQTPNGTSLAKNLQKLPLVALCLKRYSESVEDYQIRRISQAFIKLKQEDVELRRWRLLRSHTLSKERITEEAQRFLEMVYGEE

TnsD W371Z = biological target: T2, TnsD W371Z (Escherichia coli (transposon Tn7), UniProt P13991 1-370); conditions: protein: recombinant
T2 sequence: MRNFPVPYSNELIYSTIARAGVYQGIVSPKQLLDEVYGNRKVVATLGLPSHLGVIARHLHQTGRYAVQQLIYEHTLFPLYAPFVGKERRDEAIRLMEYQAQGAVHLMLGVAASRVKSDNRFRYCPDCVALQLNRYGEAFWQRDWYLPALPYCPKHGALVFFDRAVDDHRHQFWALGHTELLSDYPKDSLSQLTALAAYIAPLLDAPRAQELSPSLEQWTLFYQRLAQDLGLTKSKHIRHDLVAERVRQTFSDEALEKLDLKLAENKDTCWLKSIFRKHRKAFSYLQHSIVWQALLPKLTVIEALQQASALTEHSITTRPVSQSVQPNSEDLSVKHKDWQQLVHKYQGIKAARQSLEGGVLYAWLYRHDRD

TnsD G109E = biological target: T3, TnsD G109E (Escherichia coli (transposon Tn7), UniProt P13991 1-508, G109E); conditions: protein: recombinant; tags: intein-chitin tag, cleaved with DTT
T3 sequence: T1 sequence with G109E, H486A

TnsD A497I = biological target: T4, TnsD A497I (Escherichia coli (transposon Tn7), UniProt P13991 1-508, A497I); conditions: protein: recombinant; tags: intein-chitin tag, cleaved with DTT
T4 sequence: T1 sequence with H486A, A497I

TnsD wt = biological target: T5, TnsD wt (Escherichia coli (transposon Tn7), UniProt P13991 1-508); conditions: protein: recombinant; tags: intein-chitin tag, cleaved with DTT
T5 sequence: T1 sequence with H486A

B1: attTn7 wt (+23 to +58) (dsDNA)
DNA 1: CCGCGTAACCTGGCAAAATCGGTTACGGTTGAGTAA
DNA 2: TTACTCAACCGTAACCGATTTTGCCAGGTTACGCGG
binding signal (TnsD A486H): 0.1 relative to wt
binding signal (TnsD W371Z): < 0.05 relative to wt
binding signal (TnsD G109E): 0.05 relative to wt
binding signal (TnsD A497I): 0.05 relative to wt
binding signal (TnsD wt): 1 relative to wt
